The chains are these.
T1: human ST2L (human, UniProt Q01638 19-328, limits assumed)
T1 construct: also called IL-1R4; IL-33Ra
T1 sequence (looked up): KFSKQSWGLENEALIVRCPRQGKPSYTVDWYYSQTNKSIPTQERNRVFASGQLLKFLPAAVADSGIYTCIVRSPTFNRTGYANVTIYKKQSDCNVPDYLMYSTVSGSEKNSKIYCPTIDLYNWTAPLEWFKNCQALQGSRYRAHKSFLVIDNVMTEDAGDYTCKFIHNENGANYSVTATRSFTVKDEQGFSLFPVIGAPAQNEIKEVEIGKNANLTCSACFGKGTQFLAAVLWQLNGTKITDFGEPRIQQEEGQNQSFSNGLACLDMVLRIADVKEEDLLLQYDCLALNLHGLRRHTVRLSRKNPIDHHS

B1: STLM210 (antibody, from another filing, V domains shown)
VH: EVQLLESGGGLVQPGGSLRLSCAASGFTFSDDAMIWVRQAPGKGLEWVSYIGGNGGTTYYADSVKGRFTISRDNSKNTLYLQMNSLRAEDTAVYYCARDPWSTEGSFFVLDYWGQGTLVTVSS
VL: EIVLTQSPATLSLSPGERATLSCRASQSVDDDLAWYQQKPGQAPRLLIYDASNRATGIPARFSGSGSGTDFTLTISSLEPEDFAVYYCQQYNDAITFGQGTKVEIK
B2: STLM212 (antibody, from another filing, V domains shown)
VH: B1 VH with D31V, D32Y, A33D, Y50T, G52R, N54E, T57G
VL: B1 VL
B3: STLM213 (antibody, from another filing, V domains shown)
VH: B1 VH with D31F, D32Y, A33D, Y50T, G52R, N54E, T57D, Y59N
VL: EIVLTQSPATLSLSPGERATLSCRASQSVDDDLAWYQQKPGQAPRLLIYDASNRATGIPARFSGSGSGTDFTLTISSLEPEDFAVYYCQQYIDAPLTFGQGTKVEIK
B4: STLM214 (antibody, from another filing, V domains shown)
VH: B1 VH with D31S, D32Y, A33D, I35F, Y50D, G52K, N54E, T57R, Y59A
VL: B3 VL
B5: STLM216 (antibody, from another filing, V domains shown)
VH: B1 VH with D31S, D32Y, A33D, I35F, Y50D, G52K, N54E, T57A, Y59N
VL: B3 VL with D93G, L96I
B6: STLM215 (antibody, from another filing, V domains shown)
VH: B1 VH with D31S, D32Y, A33D, I35F, Y50A, G52A, N54E, T57R
VL: B3 VL with D93G, L96I
B7: STLM211 (antibody, from another filing, V domains shown)
VH: B1 VH with D31G, D32Y, G52E, N54E, T57E
VL: B1 VL

Experimental findings from patent US20190202907A1 (180 THERAPEUTICS, published 2019) are described below.

Where a chain is given by its changes, count along the chain named.

The first assay concerns the target cyno ST2L (cyno). The assay can be described thus: affinity table; method not stated.
B1 displayed a Kd of 0.009 nM, a koff of 0.000528 s⁻¹ and a kon of 5.7e+07 M⁻¹ s⁻¹.

Regarding B2, the Kd turned out to be 0.024 nM, the koff stood at 0.000346 s⁻¹ and the kon amounted to 1.43e+07 M⁻¹ s⁻¹.

The molecule B3 returned a Kd of 0.008 nM, a koff of 0.000124 s⁻¹ and a kon of 1.64e+07 M⁻¹ s⁻¹.

B4 came in with a Kd of 0.037 nM, a dissociation rate constant (koff) of 0.000264 s⁻¹ and a kon of 7.2e+06 M⁻¹ s⁻¹.

Regarding B5, the Kd was determined as 0.003 nM, the koff was determined as 0.000264 s⁻¹ and the kon is 7.89e+07 M⁻¹ s⁻¹.

B6 returned a Kd of 0.01 nM, a koff of 0.000369 s⁻¹ and a kon of 3.54e+07 M⁻¹ s⁻¹.

Regarding B7, the Kd amounted to 0.014 nM, the koff worked out at 0.00139 s⁻¹ and the kon was determined as 1e+08 M⁻¹ s⁻¹.

Another assay concerns the target T1, human ST2L. The assay can be described thus: affinity table; method not stated.
Consider B1, for which the Kd was determined as 0.019 nM, the koff amounted to 0.000227 s⁻¹ and the kon amounted to 1.21e+07 M⁻¹ s⁻¹.

In turn, B2 registered a Kd of 0.032 nM, a koff of 0.000398 s⁻¹ and a kon of 1.24e+07 M⁻¹ s⁻¹.

B3 showed a Kd of 0.014 nM, a koff of 0.000108 s⁻¹ and a kon of 7.54e+06 M⁻¹ s⁻¹.

On to B4, for which the Kd is 0.033 nM, the koff amounted to 0.000299 s⁻¹ and the kon turned out to be 9.16e+06 M⁻¹ s⁻¹.

Molecule B5 had a Kd of 0.016 nM, a koff of 0.000158 s⁻¹ and a kon of 9.63e+06 M⁻¹ s⁻¹.

As to B6, the Kd stood at 0.025 nM, the koff worked out at 0.000172 s⁻¹ and the kon came to 6.91e+06 M⁻¹ s⁻¹.

Consider B7, for which the Kd came out at 0.029 nM, the koff amounted to 0.000483 s⁻¹ and the association rate constant (kon) came out at 1.7e+07 M⁻¹ s⁻¹.

As a reminder, the Kd is the free concentration of one partner at which half of the binding sites on the other are occupied at equilibrium, for simple one-to-one binding. A high value points to lower affinity. By koff is commonly meant the rate constant with which the complex falls apart. Low values mean a long-lived complex, high ones a short-lived complex. What is called kon is the rate constant with which the complex forms. High values mean fast association, low ones slow association.
